Three molecules from patent US20260273054A1 (published 2026) can be followed below.

The target in assay [1] is T1, EGFR wild type (L858) peptide on HLA-A*11:01 (human).
T1 peptide: VKITDFGLAK
The experiment in a line: activation reporter or marker.

Assay [2] has as its target T2, EGFR L858R peptide on HLA-A*11:01 (human).
T2 peptide: KITDFGRAK
The experiment in a line: activation reporter or marker.

Assay [3] concerns the target T3, EGFR wild type (L858) peptide on HLA-A*11:01 (human).
T3 peptide: KITDFGLAK
Kind of assay: activation reporter or marker.

Assay [4] concerns the target T4, EGFR L858R peptide on HLA-A*11:01 (human).
T4 peptide: KITDFGRAKL
The experiment in a line: activation reporter or marker.

Assay [5] concerns the target T5, EGFR wild type (L858) peptide on HLA-A*11:01 (human).
T5 peptide: KITDFGLAKL
The experiment in a line: activation reporter or marker.

Assay [6] deals with T2, EGFR L858R peptide on HLA-A*11:01. Kind of assay: killing.
For assay [7], the target named is T3, EGFR wild type (L858) peptide on …. The experiment in a line: killing.

B1: 0013-TCR102 (TCR, V domains shown)
Valpha: VGLHLPTLSVQEGDNSIINCAYSNSASDYFIWYKQESGKGPQFIIDIRSNMDKRQGQRVTVLLNKTVKHLSLQIAATQPGDSAVYFCAETPDKLIFGTGTRLQVFP
Vbeta: DTGVSQDPRHKITKRGQNVTFRCDPISEHNRLYWYRQTLGQGPEFLTYFQNEAQLEKSRLLSDRFSAERPKGSFSTLEIQRTEQGDSAMYLCASSGGGDSPLHFGNGTRLTVT
Take B1: the binding result is given as “no recognition” in assay [1]; “recognises” in assay [2]; “no recognition” in assay [3]; “no recognition” in assay [4]; “no recognition” in assay [5].

B2: 0013-TCR319 (TCR, V domains shown)
Valpha: QSVTQPDIHITVSEGASLELRCNYSYGATPYLFWYVQSPGQGLQLLLKYFSGDTLVQGIKGFEAEFKRSQSSFNLRKPSVHWSDAAEYFCAVGGGGADGLTFGKGTHLIIQP
Vbeta: DVKVTQSSRYLVKRTGEKVFLECVQDMDHENMFWYRQDPGLGLRLIYFSYDVKMKEKGDIPEGYSVSREKKERFSLILESASTNQTSMYLCATLWYRQGADGYTFGSGTRLTVV
As to B2, the binding result in assay [1] is on record as “no recognition”; in assay [4], “no recognition”; in assay [5], “no recognition”; in assay [6], “recognises”; in assay [7], “no recognition”.

B3: 0013-TCR1 (TCR, V domains shown)
Valpha: QKEVEQNSGPLSVPEGAIASLNCTYSDRGSQSFFWYRQYSGKSPELIMSIYSNGDKEDGRFTAQLNKASQYVSLLIRDSQPSDSATYLCAVYNNNDMRFGAGTRLTVKP
Vbeta: GVSQTPSNKVTEKGKYVELRCDPISGHTALYWYRQSLGQGPEFLIYFQGTGAADDSGLPNDRFFAVRPEGSVSTLKIQRTERGDSAVYLCASSFLAGHLYTGELFFGEGSRLTVL
As to B3, the binding result in assay [1] is listed as “no recognition”; in assay [5], “no recognition”; in assay [6] it was “recognises”; in assay [7], “no recognition”.
